Test results reported in US20230063420A1.

Experiments:
[1] = target: GLP-1 receptor (Example 19, species not stated); assay: cell-based or functional assay
[2] = target: cyno glucagon receptor (cyno); assay: cell-based or functional assay

pEC50, cAMP accumulation, 0% HSA [1]: 11.6 -log M
pEC50, cAMP accumulation, 0.1% HSA [1]: 10.3 -log M
pEC50, cAMP accumulation, 4% HSA [1]: 9.24 -log M
cGCGR pEC50, cAMP accumulation [2]: < 9 -log M
Substance: semaglutide (peptide)
